Test: label from the status in PepcDB records

| Sequence | protein production |
| --- | --- |
| MATMNEKDYYEILGVSKDATSRDIQKAFQQKARKLHPDVNKEPDAEEKFKEVSEAYAVLSDEQKRARYDAMRSGNPFAGAPTASPYGGGYAGSAGYGNPFDGGFPFGGAWGQPRRGQAAYNPESGANVVVDIKLDAKEAKSGAHKTVRYTRFDTCGHCGGSGSVSSEHAHTCPSCGGRGHIDVDLSFLFGAGTFQTVCPECGGSGKVVADPCPDCGGSGRIRVTSEQTIEFPAGTHDGDEVRIPNMGHAGTNGASGGDLVGRAHVEAERLEGKARTGFYLMGIIAPFLVLSAISGVFSAFAMMCFIPFAMGLFMVLSDGVLHRSLLWWKRGAMQFANGFANGFMFALVSVWFASCSQQAMLSPYGMQ | failed |
| MNIKIVFYVLGGLLRLLGLLMIVPLGVAYYYGESLTPFLVSIVITVLTGLILLSYKTDEDWMRKEGFAIVALGWLAVAVFGAIPFMLDGISPLNSLFEAMSAFTTTGSTILTDIESHPKGILFWRSMMQWLGGMGIIVLFIAVLPKFGVAGRQLFRAEAPGPTEDKLKPRIRETAKILWMVYFVISFAEVVALLLAGLSLYDAITHTFTTMACGGFSPYGTSIEAFRSPLVEYIITFFMFVSGANFALHYRAIYVDKDFLLKDDEFRFYTALTLAATGLLTLLLYRDINTGFFDSFRLAIFQVVSIMTTTGFATADFNFWSDSAKMVLLLIMFVGGCAGSTGGGIKVVRILMLLRHGRVELFKSLHPRAIRGVKFNNKNVPDEVINSIFSFVVIYLFIFMSSALILAVLGMDIITSTTASIATLGNIGPGLNVVGPMGTFDPIPPLGKLILIANMWIGRLEVYTVIVLFTPEFWNK | failed |
| MFSVNNTHSSVSCSPSINSNSTSNEHYLRILTEWEKNSSPGEERGIAFNRLSQCFQNQEAVLNLSDLNLTSLPELPKHISALIVENNKLTSLPKLPAFLKELNADNNRLSVIPELPESLTTLSVRSNQLENLPVLPNHLTSLFVENNRLYNLPALPEKLKFLHVYYNRLTTLPDLPDKLEILCAQRNNLVTFPQFSDRNNIRQKEYYFHFNQITTLPESFSQLDSSYRINISGNPLSTRVLQSLQRLTSSPDYHGPQIYFSMSDGQQNTLHRPLADAVTAWFPENKQSDVSQIWHAFEHEEHANTFSAFLDRLSDTVSARNTSGFREQVAAWLEKLSASAELRQQSFAVAADATESCEDRVALTWNNLRKTLLVHQASEGLFDNDTGALLSLGREMFRLEILEDIARDKVRTLHFVDEIEVYLAFQTMLAEKLQLSTAVKEMRFYGVSGVTANDLRTAEAMVRSREENEFTDWFSLWGPWHAVLKRTEADRWAQAEEQKYEMLENEYSQRVADRLKASGLSGDADAEREAGAQVMRETEQQIYRQLTDEVLALRLSENGSRLHHS | not failed |
| MVLPSGLALPPLEYTVALLAGTLVVTALLYALEPPINQRTVVALTPWMALGGALHAFHQPPIEAYRPVVTPLFGAPAVYLTTFVTLGVVWVTLTLFSVRRGHSETISRNLGYIGIGLLTVLLVIAVVMALESGLLGLIWPTIAVIVATVVTAVTVLAVALWRTPVVVRMRYAAPTVVFAHMLDGVSTAVGADVIGITERTPIPARIMEFAGTLPTAPYLGKGWLFVFVKLLVAIGVVFLLDDYLEEDPVEASLLLAVVTAVGIGPATNNIVLFLFSPV | failed |
| MSNEFEPYNKEIKKIEFTTWKYQASKDAEHSPSDEEELINELEVVKQEAFQKGYADGFQQAQEEINAIKAELSKWLDLIQKPVQILDEQLTQEIIQTIIWLSQHCVAVELSVNPDKLNDLLNKIKGELPSLTGKKSISMHPDDVRWIKEVFSESNIPGLHELLVADPALNRGDFYLQGEHSELDGRIQTRFTTLFNEYINKENIIP | failed |
| MTIKGRAFPEGFLWGGAVAAHQLEGGYKEGGKGLSTADIMTLGTNERPREITDGVVAGKYYPNHQAIDFYHRYPEDIELFAEMGFKCFRTSIAWTRIFPNGDESEPNEAGLQFYDDLFDECLKNGIQPVVTLAHFEMPYHLVKQYGGWRNRKLIQFYLNFAKVCFERYRDKVTYWMTFNEINNQTNFESDGAMLTDSGIIHQPGENRERWMYQAAHYELVASAAAVQLGHQINPDFQIGCMIAMCPIYPLTAAPADVLFAQRAMQTRFYFADVHCNGTYPQWLRNRFESEHFNLDITAEDLKILQAGTVDYIGFSYYMSFTVKDTGKLAYNEEHDLVKNPYVKASDWGWQVDPVGLRYAMNWFTDRYHLPLFIVENGLGAIDKKTADNQIHDDYRIDYLTDHLRQIKLAVLEDGVDLIGYTPWGCIDLVAASTGQMSKRYGFIYVDENDDGSGSLKRYKKDSFTWFQHVIATNGAEIE | not failed |

Reference: a protein production outcome set (Wang et al. 2014)
